In paper PMC3290565:

Molecular target: T1, NalC-His (Pseudomonas aeruginosa K767) (UniProt Q9HXS0)
T1 sequence: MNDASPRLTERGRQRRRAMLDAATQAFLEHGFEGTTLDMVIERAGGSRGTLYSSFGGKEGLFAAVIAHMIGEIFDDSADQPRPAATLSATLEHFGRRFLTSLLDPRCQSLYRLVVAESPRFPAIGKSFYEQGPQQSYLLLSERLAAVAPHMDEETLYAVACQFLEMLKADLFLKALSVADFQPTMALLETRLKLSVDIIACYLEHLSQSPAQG
Assay: EMSA

Sequence	binding
CTAACGAGAAACGCTCTCAGCAAACCGCCTGGAGGCTTGAACGGACCGTCCCGACGGCCCACCATGCGCACCTTCCGACCGCCACCCCGCGAGGCCCGATACCGCTC (double strand) [PA3720-proximal fragment (endpoints II)]	binds
GAGCGGTATCGGGCCTCGCGGGGTGGCGGTCGGAAGGTGCGCATGGTGGGCCGTCGGGACGGTCCGTTCAAGCCTCCAGGCGGTTTGCTGAGAGCGTTTCTCGTTAGGGTTGACGCTGGTCATTTAAGAACTGTATCGTACAGTACTGTTTTGGCAAGCACTTCCGCTCATTCCTCCGCCTTGCCTCCCCGCAGGAGTCCCCCCA (double strand) [nalC-PA3720 intergenic region]	binds
TTAGGGTTGACGCTGGTCATTTAAGAACTGTATCGTACAGTACTGTTTTGGCAAGCACTTCCGCTCATTCCTCCGCCTTGCCTCCCCGCAGGAGTCCCCCCA (double strand) [PA3720-distal fragment (endpoints I)]	no binding
